Reference: patent US20120316071A1 (published 2012)
Positions count from the first letter of the chain named. Names may count otherwise. Each block holds one binder with its values, some of them ahead of it.

Legend:
[1] = molecular target: T1, rHuman EGF R/Fc Chimera, CF (R&D Systems Cat#344-ER) (human, UniProt P00533 25-645); assay: ECL Multispot (MSD), antigen spotted; Fab 500 (µM); blank 439
T1 construct: Bought recombinant protein; Fc part of the bought chimera not given

[2] = molecular target: T2, rHuman IGF-1 sR, CF (R&D Systems Cat#391-GR) (human, UniProt P08069 31-932); assay: as above
T2 construct: Bought recombinant soluble receptor; also called insulin-like growth factor-1 soluble receptor

[3] = molecular target: T3, rHuman HGF R/c-MET/Fc Chimera, CF (R&D Systems Cat#358-MT/CF) (human, UniProt P08581 25-932); assay: as above
T3 construct: Bought recombinant protein; also called HGF R/Fc; Fc part of the bought chimera not given

[4] = molecular target: T4, rHuman Erythropoietin R/Fc Chimera, CF (R&D Systems Cat#963-ER) (human, UniProt P19235 25-250); assay: as above
T4 construct: Bought recombinant protein; also called EPO R; EPO R/Fc; Fc part of the bought chimera not given
T4 sequence (looked up): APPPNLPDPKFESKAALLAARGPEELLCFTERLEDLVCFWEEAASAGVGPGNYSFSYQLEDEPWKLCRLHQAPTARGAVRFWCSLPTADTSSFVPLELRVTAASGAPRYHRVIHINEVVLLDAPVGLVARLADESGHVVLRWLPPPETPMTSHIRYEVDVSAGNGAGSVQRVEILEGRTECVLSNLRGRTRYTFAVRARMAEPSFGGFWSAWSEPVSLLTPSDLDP

[5] = molecular target: T5, rHuman Notch-1/Fc Chimera, CF (R&D Systems Cat#3647-TK) (human, UniProt P46531 19-526); assay: as above
T5 construct: Bought recombinant protein; Fc part of the bought chimera not given

[6] = molecular target: T6, Recombinant Human DLL4 (R&D Systems Cat#1506-D4/CF) (human, UniProt Q9NR61 27-529); assay: as above
T6 construct: Bought recombinant protein; also called delta-like protein 4; rHuman DLL4

[7] = molecular target: T7, rHuman ErbB2/Fc Chimera, CF (R&D Systems Cat#1129-ER) (human, UniProt P04626 23-652); assay: as above
T7 construct: Bought recombinant protein; Fc part of the bought chimera not given

[8] = molecular target: T8, rHuman CD44/Fc Chimera, CF (R&D Systems Cat#3660-CD) (human, UniProt P16070 21-220); assay: as above
T8 construct: Bought recombinant protein; Fc part of the bought chimera not given

[9] = molecular target: T9, Recombinant Human DLL4 (R&D Systems Cat#1506-D4/CF) (human, UniProt Q9NR61 27-524); assay: Multispot ECL (MSD), antigen spotted on plate, Fab 7.8 nM; blank spot 316
T9 construct: Bought recombinant protein; also called rHuman DLL4; delta-like protein 4

[10] = molecular target: T10, rHuman Erythropoietin R/Fc Chimera, CF (R&D Systems Cat#963-ER) (human, UniProt P19235 25-250); assay: as above
T10 construct: Bought recombinant protein; also called EPO R/Fc; Epo R; Fc part of the bought chimera not given
T10 sequence (looked up): T4 sequence (looked up)

[11] = molecular target: T11, rHuman Notch-1/Fc Chimera, CF (R&D Systems Cat#3647-TK) (human, UniProt P46531 19-526); assay: as above
T11 construct: Bought recombinant protein; Fc part of the bought chimera not given

[12] = molecular target: T12, rHuman IGF-1 sR, CF (R&D Systems Cat#391-GR) (human, UniProt P08069 31-932); assay: as above
T12 construct: Bought recombinant soluble receptor; also called insulin-like growth factor-1 soluble receptor

[13] = molecular target: T13, rHuman CD44/Fc Chimera, CF (R&D Systems Cat#3660-CD) (human, UniProt P16070 21-220); assay: MSD Multispot ECL, antigen spotted on plate, Fab at 480 nM; blank spot 362
T13 construct: Bought Fc chimera; Fc part of the bought chimera not given

[14] = molecular target: T14, Recombinant Human DLL4 (R&D Systems Cat#1506-D4/CF) (human, UniProt Q9NR61 27-524); assay: as above
T14 construct: Bought recombinant protein; also called rHuman DLL4; delta-like protein 4

[15] = molecular target: T15, rHuman Notch-1/Fc Chimera, CF (R&D Systems Cat#3647-TK) (human, UniProt P46531 19-526); assay: as above
T15 construct: Bought Fc chimera; Fc part of the bought chimera not given

[16] = molecular target: T16, rHuman P-Cadherin/Fc Chimera, CF (R&D Systems Cat#861-PC) (human, UniProt P22223 108-654); assay: as above
T16 construct: Bought Fc chimera; Fc part of the bought chimera not given

[17] = molecular target: T17, rHuman Erythropoietin R/Fc Chimera, CF (R&D Systems Cat#963-ER) (human, UniProt P19235 25-250); assay: as above
T17 construct: Bought Fc chimera; also called EPO R/Fc; Epo R; Fc part of the bought chimera not given
T17 sequence (looked up): T4 sequence (looked up)

T3 sequence (P08581 25-932, change not shown): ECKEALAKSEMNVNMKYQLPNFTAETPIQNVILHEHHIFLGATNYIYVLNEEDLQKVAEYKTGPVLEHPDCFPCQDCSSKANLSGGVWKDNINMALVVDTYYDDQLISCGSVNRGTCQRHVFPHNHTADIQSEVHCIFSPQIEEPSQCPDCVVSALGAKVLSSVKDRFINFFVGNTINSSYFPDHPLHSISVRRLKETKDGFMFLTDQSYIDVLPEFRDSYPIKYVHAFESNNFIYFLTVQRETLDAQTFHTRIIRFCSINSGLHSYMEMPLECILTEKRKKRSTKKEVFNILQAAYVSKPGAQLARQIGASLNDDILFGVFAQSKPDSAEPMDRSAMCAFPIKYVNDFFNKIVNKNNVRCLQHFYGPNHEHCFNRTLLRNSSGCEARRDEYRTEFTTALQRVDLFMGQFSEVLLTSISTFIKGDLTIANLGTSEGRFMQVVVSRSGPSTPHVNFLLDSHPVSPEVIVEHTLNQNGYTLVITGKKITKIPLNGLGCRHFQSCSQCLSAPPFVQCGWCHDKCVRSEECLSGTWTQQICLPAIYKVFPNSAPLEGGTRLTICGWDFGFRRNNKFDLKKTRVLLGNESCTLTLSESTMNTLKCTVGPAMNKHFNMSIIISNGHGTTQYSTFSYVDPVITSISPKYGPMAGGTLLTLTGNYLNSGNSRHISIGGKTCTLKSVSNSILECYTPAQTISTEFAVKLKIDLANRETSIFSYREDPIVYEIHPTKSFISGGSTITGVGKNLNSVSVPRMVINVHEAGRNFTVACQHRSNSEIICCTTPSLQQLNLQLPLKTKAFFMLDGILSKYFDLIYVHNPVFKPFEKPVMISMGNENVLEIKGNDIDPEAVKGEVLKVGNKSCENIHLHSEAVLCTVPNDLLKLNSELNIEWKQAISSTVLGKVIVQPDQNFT

ECL signal [1]: 1480
ECL signal [2]: 613
ECL signal [3]: 760
ECL signal [4]: 1210
ECL signal [5]: 785
ECL signal [6]: 28900
ECL signal [7]: 1580
ECL signal [8]: 874
B1: Fab VH1-46_IGHD6-6*01_IGHJ1*01 S102A/S103P/S104F (APF) & L6_IGKJ1*01 (Fab, V domains shown)
VH: QVQLVQSGAEVKKPGASVKVSCKASGYTFTSYYMHWVRQAPGQGLEWMGIINPSGGSTSYAQKFQGRVTMTRDTSTSTVYMELSSLRSEDTAVYYCAREEYAPFSAEYFQHWGQGTLVTVSS
VL: not shown
notes: Tested as a Fab made in E. coli: VH cloned in Plasmid A (CH1 constant region, His6 and Flag tags), VL in Plasmid C (kappa constant region); also called H:APF & L:wt; APF triple mutant

ECL signal [9]: 407
ECL signal [10]: 6760
ECL signal [11]: 486
ECL signal [12]: 353
B2: Fab VH1-46_IGHD6-13*01_IGHJ4*01 & B3_IGKJ1*01 (Fab, V domains shown)
VH: B1 VH with E100G, A102S, P103S, F104S, S105W, A106Y, E107D, Q110D, H111Y
VL: not shown
notes: Germline Fab made in E. coli; VH was cloned into Plasmid A (CH1, His6 and Flag tags) and the kappa VL into Plasmid C (kappa CL)

ECL signal [13]: 541
ECL signal [14]: 1530
ECL signal [15]: 545
ECL signal [16]: 596
ECL signal [17]: 621
B3: Fab VH6-1_IGHD3-3*01_IGHJ4*01 & V4-3_IGLJ4*01 (Fab, V domains shown)
VH: QVQLQQSGPGLVKPSQTLSLTCAISGDSVSSNSAAWNWIRQSPSRGLEWLGRTYYRSKWYNDYAVSVKSRITINPDTSKNQFSLQLNSVTPEDTAVYYCAREYYDFWSGYYTDYFDYWGQGTLVTVSS
VL: QPVLTQPTSLSASPGASARLTCTLRSGINLGSYRIFWYQQKPESPPRYLLSYYSDSSKHQGSGVPSRFSGSKDASSNAGILVISGLQSEDEADYYCMIWHSSASFVFGGGTQLIIL
notes: Tested as a purified germline Fab made in E. coli; The VH was cloned into plasmid A (CH1 constant region, His6 and Flag tags) and the lambda VL into plasmid E (lambda CL)
